In the RNAGym collection of RNA variant scans (doi:10.7554/elife.90254) one finds self-cleavage data, which are given here for 167 variants.

B1: OR4K15 (parent)
chain: GUUAACGGUCAUAGGCCAUGGAAACUAGGAGCACCAUUUCGCUGCCAGUGAAGAAAUGAACAAAGAAAAUCUGGGCCAGGCAGGCAUCAAAAGAAAUAGUCUUGCGCUCAACCAGAAAGUCUGUAAUCAUUUUAAGGGUA

The variants in this data set derive from B1. Briefly: self-cleavage, relative activity (ratio to wild type); higher = more cleavage; in vitro, sequencing; the parent is a self-cleaving ribozyme.
On to A18G C109U, for which the self-cleavage was determined as 0.82.
With U19A A114U the figure was 0.04.
Next, U19A A114G: 0.55; C17G U39A: 1.07; U19A A63G: 1.59.
On to U19C A92G, for which the self-cleavage was determined as 1.53.
For the variant A18G A111G, the self-cleavage was 0.03.
Next, A18U G48U: 1.24.
Turning to A18G U100C, the self-cleavage was 2.34.
With A18U U38A the figure was 1.02; with A18G A110G, 0.21.
Next, A18G U132G: 1.71; A18U U100C: 2.18.
With A18G G115U the figure was 0.14.
For the variant C16A A134G, the self-cleavage worked out at 0.96.
Take A18U A116G: the self-cleavage worked out at 0.63.
As to A18U A116U, the self-cleavage came out at 0.15.
Next, A18C A118G: 1.22.
In the case of C17U A67G, the self-cleavage is 1.26.
On to A18G A36U, for which the self-cleavage was 1.39.
As to C16U A95G, the self-cleavage was determined as 1.21.
With U19A A82U, the self-cleavage stood at 0.34.
For the variant C17U A91G, the self-cleavage came to 0.42.
Next, U19C A98G: 0.25; U19C A27G: 0.89.
For the variant U19A A52G, the self-cleavage is 1.35.
As to A18G U70C, the self-cleavage came out at 0.57.
With A18G C61U the figure was 1.18.
Next, U19C C76U: 0.14.
On to C16G A69G, for which the self-cleavage stood at 1.02.
With A18U A66G the figure was 1.5.
Take A18U A66C: the self-cleavage amounted to 1.22.
Next, A18G U122A: 0.94.
Consider A18G A114C, for which the self-cleavage worked out at 0.05.
Next, C16U A69U: 0.66; C16U A69G: 0.74.
With U19C A96G, the self-cleavage was found to be 1.8.
On to U19C A96C, for which the self-cleavage was 0.69.
With U19C A96U the figure was 1.51; with C17U G74A, 0.13.
Next, U19A A62G: 1.32; U19C A110G: 0.08; U19C A110C: 0.16.
Regarding U19C A52U, the self-cleavage was 0.93.
With A18G A78U the figure was 0.35; with A18G U103C, 1.04; with U19C A129U, 1.39.
Take U19C A135U: the self-cleavage is 1.5.
With U19C A135G the figure was 2.08.
Regarding C17U C109A, the self-cleavage amounted to 0.2.
As to A18G A33G, the self-cleavage was 0.97.
Next, C17U A27C: 0.44; C16G U37C: 1.55.
For the variant C16G U127A, the self-cleavage is 2.18.
In the case of U19A A126G, the self-cleavage was determined as 1.38.
Consider U19A A126C, for which the self-cleavage came to 0.55.
Next, A18U G58A: 1.09.
With U19C A67U the figure was 1.67; with U19C A67G, 1.04; with C17A U108C, 0.02.
Next, C16U A18U: 1.52; U19A C109U: 0.16; A18U U49A: 1.67.
A18U U49C: the self-cleavage turned out to be 1.47.
Turning to U19A A55G, the self-cleavage stood at 1.79.
Next, A18G A52G: 1.67; A18G A52U: 1.21.
Take U19C A90U: the self-cleavage turned out to be 1.49.
With U19C A90G the figure was 1.39.
For C16U A68G, the self-cleavage was 1.42.
Next, U19A U131C: 1.46; U19A U131G: 2.03; A18U U133A: 1.57.
With C17U A64G the figure was 0.65; with U19A U127C, 0.92.
With A18G A118G, the self-cleavage is 1.34.
Regarding A18G A118C, the self-cleavage was found to be 0.27.
As for A18U A86G, the self-cleavage came to 1.01.
Next, A18G G65U: 1.18.
Next, C17U U87A: 1.37; C17U U87C: 0.7.
Turning to U19A A22G, the self-cleavage amounted to 1.09.
With A18G A62U the figure was 2.16; with A18G A62G, 1.54.
As for U19A G137U, the self-cleavage turned out to be 1.52.
Next, C17A U43A: 1.18.
Next, C16U A111U: 0.16.
With C16U U97C the figure was 1.23; with U19A A23G, 1.28.
Turning to U19A A140G, the self-cleavage came to 1.75.
Next, A18G C40U: 1.66; A18G G93U: 2.69; A18G C42G: 1.02.
As to A18G A116G, the self-cleavage stood at 1.17.
Next, A18G A116U: 0.75; A18G A60G: 0.97.
Next, C17U A54G: 1.02; A18G A69U: 1.94.
Take U19C A114U: the self-cleavage was 0.11.
Next, U19C A114G: 0.39; C16G A68U: 0.89.
Next, A18C G28U: 1.37.
In the case of U19A A59G, the self-cleavage is 1.12.
In the case of A18U A98C, the self-cleavage amounted to 1.13.
With C17U A62G the figure was 0.91; with U19A A36G, 1.19; with U19A A89U, 0.85.
Next, A18C A23G: 0.81; C16G U49C: 0.92; A18C U87C: 0.67.
Consider C16U U132C, for which the self-cleavage came out at 1.11.
Next, C16U A82U: 0.21; A18G U57A: 1; C17U A89G: 1.23.
Take A18U G104A: the self-cleavage was 0.05.
With C17U A110U the figure was 1.55; with U19A A98G, 0.5.
With U19A U130C the figure was 0.95; with U19C A54G, 1.21.
Regarding U19C A54C, the self-cleavage stood at 1.2.
In the case of C16U G80A, the self-cleavage turned out to be 0.1.
Next, C16G A86G: 0.51.
Next, C17U A22G: 1.48; U19A U133C: 1.73; C16A A55G: 0.37.
With U19C C85G the figure was 1.02; with C16A U124A, 0.4; with U19A U102C, 1.65.
C16U A52G: the self-cleavage is 0.37.
Next, A18C: 0.89; A18G: 1.16.
As for A18U, the self-cleavage is 1.11.
Consider A18G G80U, for which the self-cleavage came out at 0.14.
Next, A18G A96C: 1.68; A18G A96G: 1.44.
Next, A18G A96U: 1.84.
Next, U19A U49C: 1.38; U19A A96U: 1.41; U19A A78G: 0.31.
Turning to A18U C113A, the self-cleavage was determined as 0.05.
A18U A91G: the self-cleavage is 1.16.
Next, A18U A91U: 1.96.
With U19C A33G the figure was 0.62.
Next, A18C A117G: 1.24.
Regarding A18C C113U, the self-cleavage was found to be 0.12.
Consider A18U C105U, for which the self-cleavage came out at 0.28.
With U19A A90G the figure was 0.53; with U19A U124C, 0.9; with U19A U26C, 2.12.
Next, U19A G48A: 1.35; C17G G79A: 0.18.
Next, A18U U102C: 0.98.
Turning to A18U A90G, the self-cleavage was determined as 0.53.
Next, A18U A52U: 1.6; U19C A125U: 2.21; A18G A22G: 1.01.
Next, A18G A22U: 1.95; U19C A86U: 1.8; C17A A117G: 1.53.
With A18G C46U the figure was 1.34; with U19C A55U, 1.69.
With U19C A55C, the self-cleavage was 1.89.
With A18U A111U the figure was 0.12.
Next, A18U A111G: 0.03.
With A18C A82G the figure was 0.44; with U19C A94G, 1.53; with A18G U139A, 1.83.
